Measured values from patent US11479582B2 (KING FAISAL UNIVERSITY, dated 2022).

Biological target: SARS-CoV-2 spike (S) protein, expressed from a synthetic S gene (SARS-CoV-2, UniProt P0DTC2)
Experiment: cell-based or functional assay

Binder: HVLGDISGINASVVQIQKEIDRLNEVAKNLHESLIYLQE [peptide #121 (mutated HR2 39-mer, 'Highest Affinity')]
- IC50, SARS-CoV-2 Spike-mediated cell-cell fusion: 720 nM
- IC50, SARS-CoV-2 pseudovirus infection in Calu-3 cells: 160 nM
- IC50, SARS-CoV-2 pseudovirus infection in VeroE6: > 10000 nM
- IC50, TMPRSS2-dependent plasma membrane pathway in VeroE6-TMPRSS2: < 1000 nM
